Assay results taken from the supplement of paper PMC9732359.
± gives the uncertainty stated by the source.

Assay: protein stability index of a GFP-peptide fusion (yeast GPS) (PSI 1-4); higher = more stable; sorted into four equal gates, so the index is relative within each strain
Outline: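 Each library plasmid carries Cherry plus GFP with a tiled 17-residue yeast protein peptide fused downstream, and the pooled library was carried in yeast. Mid-log cultures in leucine-free medium were sorted into four equal gates by GFP/Cherry ratio. Reads from Illumina sequencing of PCR-amplified plasmids from each gate were assigned to strains by barcodes. Per peptide, the protein stability index was computed as the summed products of gate read frequency and gate number.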

Sequence | protein stability index (doa10∆) | protein stability index (pdr5∆) | protein stability index (san1∆) | protein stability index (ubr1∆)
RYQIMLPEQLKSGKFCS [SNM1] | 2.74 ± 0.071 | 2.08 ± 0.09 | 2.7 ± 0.07 | 2.12 ± 0.061
YNRYRDLMISCLMNQET [MTR3] | 2.44 ± 0.062 | 2.56 ± 0.063 | 2.31 ± 0.084 | 2.5 ± 0.062
ETSSDGSKSDGSAATSG [RPN1] | 3.39 ± 0.053 | 3.4 ± 0.055 | 3.62 ± 0.048 | 3.3 ± 0.036
IRKLLEKINRMIIFLKN [CSI1] | 1.81 ± 0.079 | 1.5 ± 0.063 | 1.31 ± 0.11 | 1.19 ± 0.041
PEYGRIIASASYDKTVK [YGL100W/SEH1] | 2.27 ± 0.079 | 2.28 ± 0.082 | 3.03 ± 0.087 | 2.11 ± 0.056
KGVYLILSEILCQINKC [YML103C/NUP188] | 1.86 ± 0.055 | 1.56 ± 0.047 | 2.23 ± 0.075 | 1.88 ± 0.032
RALSIFSPDGHIFQVEY [PRE6] | 2.97 ± 0.051 | 2.98 ± 0.05 | 3.04 ± 0.032 | 3.1 ± 0.032
YLVEAPWNDDYPFLLSF [YML103C/NUP188] | 1.4 ± 0.048 | 1.69 ± 0.066 | 1.43 ± 0.097 | 1.61 ± 0.072
ISMNAPVFVDLEGETDP [RPO26] |  | 2.78 ± 0.3 |  | 3 ± 0.19
ENDHERGFFHLNEALLQ [CSN12] | 3.08 ± 0.075 | 2.91 ± 0.062 | 3.28 ± 0.09 | 3.06 ± 0.082
SREVLRYEEFADKVKLG [RPC40] | 2.96 ± 0.08 | 3.26 ± 0.19 | 3.17 ± 0.12 | 3.21 ± 0.14
AVHVTVRGPKAEEILER [RPL11A] | 2.99 ± 0.11 | 2.98 ± 0.094 | 2.92 ± 0.12 | 3.05 ± 0.074
TIISPHKDIPEEDFYTV [DSN1] | 3.21 ± 0.095 | 3.23 ± 0.15 | 2.44 ± 0.28 | 3.19 ± 0.054
MNGNSTNNEQLQQELAT [NUT2] | 3.2 ± 0.06 | 3.15 ± 0.075 | 3.1 ± 0.053 | 3.07 ± 0.062
TSDLVKSLGLKLPLSVI [RPS17A] | 1.12 ± 0.07 | 1.52 ± 0.078 | 1.86 ± 0.16 | 1.95 ± 0.091
QEKQEQQEQDKKKKSNH [PRE6] | 1.97 ± 0.048 | 1.81 ± 0.044 | 2.55 ± 0.06 | 1.65 ± 0.04
EIQEELERFNKRADISK [SMC1] |  |  |  | 3.23 ± 0.18
AVAVGNVEMEEDVLVNQ [RPL1A] | 2.19 ± 0.091 | 2.17 ± 0.075 | 1.17 ± 0.11 | 2 ± 0.059
LTNQLYKNHELLKLERK [SNF2] | 3.15 ± 0.063 | 3.12 ± 0.059 | 3.11 ± 0.039 | 3.2 ± 0.053
ERLAKVNEMNDQLAQEL [NNF1] | 3 ± 0.22 | 3.42 ± 0.17 | 3.28 ± 0.12 | 2.85 ± 0.18
SKMSDESFAELMTKLNS [RPC17] | 3.29 ± 0.12 | 3.67 ± 0.12 | 3.09 ± 0.098 | 3.37 ± 0.12
EGSWDRGIPRISTLFQR [PRP8] | 2.79 ± 0.19 |  | 3.24 ± 0.14 | 3.06 ± 0.11
GKLGQIDYALTAVKQGV [PRE8] | 1.36 ± 0.21 | 1.93 ± 0.13 |  | 2.54 ± 0.099
LQSISSLTISLYASDYA [RPN7] | 1.71 ± 0.031 | 1.84 ± 0.03 | 1.83 ± 0.039 | 1.95 ± 0.027
LPKLKATGHRVLIFFQM [SNF2] | 1.69 ± 0.13 | 1.52 ± 0.083 | 2.09 ± 0.12 | 2.09 ± 0.14
TTLDAEKVFTQGLNILE [FAS1] | 3.17 ± 0.11 | 3.21 ± 0.1 | 3.32 ± 0.091 | 3.28 ± 0.064

Sequence | protein stability index (doa10∆) | protein stability index (pdr5∆) | protein stability index (san1∆) | protein stability index (ubr1∆)
FIPNKQLNCVIDRVNGI [RPN7] | 2.47 ± 0.13 | 2.75 ± 0.21 | 2.73 ± 0.18 | 3.08 ± 0.18
TIRYLMQKQHEMKTQAA [SNF6] | 2.83 ± 0.049 | 2.98 ± 0.051 | 2.99 ± 0.046 | 2.9 ± 0.032
GNVFSPIDNNIIFASTK [SNU114] | 3.16 ± 0.062 | 2.97 ± 0.092 | 2.97 ± 0.052 | 2.95 ± 0.046
AKRNLDANPSSQIIARN [SMC2] | 2.49 ± 0.083 | 2.79 ± 0.076 | 3.09 ± 0.095 | 2.92 ± 0.065
TVMFFYHNKHMMCDFGT [DIB1] | 2.58 ± 0.049 | 2.51 ± 0.046 | 2.6 ± 0.046 | 2.54 ± 0.032
ICIVGGYDDFQEEGSFE [FAS2] | 2.98 ± 0.16 | 2.5 ± 0.11 | 3.5 ± 0.1 | 
PMLMANNDVFTIGPYRA [SSN3] | 3.04 ± 0.07 | 3.3 ± 0.082 | 3.13 ± 0.072 | 3.14 ± 0.058
FKSLIDEDLLDTQTFSV [YGL172W/NUP49] | 3.17 ± 0.17 | 3.05 ± 0.25 |  | 3.76 ± 0.26
NLLVLRGKNEIIQNAQR [RPO21] | 1.56 ± 0.11 | 1.41 ± 0.092 | 1.69 ± 0.16 | 1.26 ± 0.085
NRQQKKRRFDPSSSDSN [RRP6] | 2.77 ± 0.056 | 2.69 ± 0.078 | 3.05 ± 0.053 | 3.19 ± 0.067
METRINILLRERDSYKL [YIL149C/MLP2] | 1.96 ± 0.27 | 1.59 ± 0.11 | 1.2 ± 0.27 | 2.3 ± 0.15
IRIFRSELQRLSHENNV [RPT5] | 2.67 ± 0.11 | 3.21 ± 0.088 | 2.96 ± 0.052 | 2.9 ± 0.091
SSYDLLFNESFIMASVG [SRP72] | 3.18 ± 0.12 | 2.88 ± 0.15 | 2.76 ± 0.1 | 3.16 ± 0.059
VDSLDPFSEGVTFSVMP [SMC4] | 2.92 ± 0.086 | 2.39 ± 0.065 | 2.2 ± 0.13 | 3.1 ± 0.072
ALENDVATNIVNEDPIF [YML103C/NUP188] | 2.94 ± 0.051 | 3.1 ± 0.068 | 3.04 ± 0.052 | 3.05 ± 0.048
WELYTDFNEIVQYLSGA [POP3] | 2.55 ± 0.13 | 2.31 ± 0.12 | 2.4 ± 0.075 | 2.43 ± 0.075
TKFKGGKRQLMKAVGEY [SEC65] | 2.88 ± 0.098 | 3.11 ± 0.11 | 3.26 ± 0.056 | 2.46 ± 0.088
MLGRAGRPRYDTFGEGI [BRR2] | 3.25 ± 0.12 | 2.81 ± 0.14 | 3.15 ± 0.087 | 3.31 ± 0.15
KEYELLTLQEDYIKDEQ [RPT3] | 3.53 ± 0.12 | 3.13 ± 0.11 | 3.19 ± 0.083 | 3.25 ± 0.065
VEECPQYIRTLVSEART [SSN8] | 1.67 ± 0.1 | 1.7 ± 0.1 | 1.6 ± 0.14 | 1.87 ± 0.061
EKRATSPLLESDSIEKI [PUP2] | 3.12 ± 0.087 | 3.07 ± 0.077 | 3.29 ± 0.09 | 3.23 ± 0.068
HKSIELISNLLFSKNRN [YCS4] | 2.25 ± 0.055 | 2.47 ± 0.047 | 2.52 ± 0.046 | 2.41 ± 0.05
PKDYIKKLLEVHDIFSK [CDC53] | 1.46 ± 0.042 | 2.04 ± 0.06 | 1.75 ± 0.099 | 1.66 ± 0.04
SQPTAAGGPDMTTPQNI [DSN1] | 1.82 ± 0.065 | 1.9 ± 0.063 | 1.89 ± 0.1 | 1.36 ± 0.053
KNSTSSMTAVPKPLKFL [RPN1] | 2.03 ± 0.071 | 2.31 ± 0.072 | 1.98 ± 0.062 | 2.15 ± 0.069
